From IntAct's records for PubMed 20835227

B1: DNA replication regulator SLD3 (Saccharomyces cerevisiae), P53135 (parent)
chain: METWEVIASVKEATKGLDLSLDHPLIIKSEDVPSNILQLLQQKNRRQLKHICMKSRKEYFLLEEYGPGFWVKWPYNYFNGYSLPERRTEVVTTVERERAKRETLKTWDELKFKELLHLWSEEPKGSCKLEKDKDLKLDMNPPDMKGESKINDYYSDPKEYIESKYYDALFSIHTPLAYFVKSNLVRLKNTCRTKYGSDSYKIAYQAMLQKFLLSIVQFKDRHDNRLLLEPFSSPIADEKRKNCLTKFVIQDENKNSSTIADLCVVLKSREIKLQILLLLEIIGLNDLDWNFRDFEKKYKLKLKKRSLNLTKKGLVRRRSKKKTSEKDKGIERITTSLDYCEQLDLYLDRACILDILLSSETPNPDAIEASNGTIQEHKKNILDKSKEASLVGFINYVLIPYFNKKVPHAVEFIIQKLKGPSMRPKRALKKVNDSTNVSSPNTVETYNRLSTSQRASRSSIINSVPSSPALRRVDANLFSRKSIASPTPELLNSRTNSNLNEFLESETRSLKRPSQLGRTKSDLTMNHLQKRQFSVSDLSTTRVPNSSTITLKTPFSHSTINAYKTMNNSFRRVGKRKDINETIRLHERVDSEENVQVQATPAVKKRTVTPNKKAQLQSIIESPLNFKDDDTHEGRKNTSNITSTPTNKPPENSSKRRVRRRLFAPEST
partner: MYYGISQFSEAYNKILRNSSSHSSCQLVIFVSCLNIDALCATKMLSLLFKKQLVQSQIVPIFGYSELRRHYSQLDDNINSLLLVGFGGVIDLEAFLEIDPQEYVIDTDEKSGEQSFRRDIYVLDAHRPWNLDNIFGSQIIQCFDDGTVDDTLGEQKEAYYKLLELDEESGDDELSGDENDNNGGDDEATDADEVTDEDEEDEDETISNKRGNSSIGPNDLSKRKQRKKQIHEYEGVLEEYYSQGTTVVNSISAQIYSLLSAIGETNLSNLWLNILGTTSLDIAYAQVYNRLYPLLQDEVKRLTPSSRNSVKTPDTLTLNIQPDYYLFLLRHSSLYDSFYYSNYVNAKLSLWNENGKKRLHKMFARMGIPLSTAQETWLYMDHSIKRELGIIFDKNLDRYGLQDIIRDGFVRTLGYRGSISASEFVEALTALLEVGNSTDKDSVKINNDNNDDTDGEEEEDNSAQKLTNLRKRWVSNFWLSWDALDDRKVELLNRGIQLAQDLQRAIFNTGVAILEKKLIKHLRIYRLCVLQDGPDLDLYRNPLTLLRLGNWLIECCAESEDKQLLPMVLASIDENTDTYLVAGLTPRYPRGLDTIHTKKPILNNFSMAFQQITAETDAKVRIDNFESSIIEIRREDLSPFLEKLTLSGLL

Variants of: B1
Conditions: with cdc45_yeast CDC45, Q08032

| Variant | effect of a mutation on the interaction |
| --- | --- |
| S306D;T310D | disrupting interaction |
